Laboratory results reported in article doi:10.1101/2022.10.13.511879 (bioRxiv, 2022).
Positions count from the first letter of the chain named. Names and notes keep the numbering of the source.

Assays:
[1] = target: T1, POPDC2-VN155 (human, UniProt Q9HBU9 1-364); assay: split reporter
T1 sequence (looked up): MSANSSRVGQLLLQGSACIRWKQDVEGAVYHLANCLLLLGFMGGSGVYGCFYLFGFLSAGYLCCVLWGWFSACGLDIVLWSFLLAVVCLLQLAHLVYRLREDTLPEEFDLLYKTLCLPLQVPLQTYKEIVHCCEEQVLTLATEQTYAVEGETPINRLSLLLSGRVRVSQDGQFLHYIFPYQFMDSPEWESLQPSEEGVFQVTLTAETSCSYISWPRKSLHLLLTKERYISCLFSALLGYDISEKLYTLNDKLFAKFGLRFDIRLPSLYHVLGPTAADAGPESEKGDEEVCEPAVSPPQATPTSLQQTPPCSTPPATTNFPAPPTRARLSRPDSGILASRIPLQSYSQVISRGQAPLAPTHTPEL

[2] = target: T2, POPDC2 p.W188X-VN155 (human, UniProt Q9HBU9 1-187); assay: split reporter
T2 sequence (looked up): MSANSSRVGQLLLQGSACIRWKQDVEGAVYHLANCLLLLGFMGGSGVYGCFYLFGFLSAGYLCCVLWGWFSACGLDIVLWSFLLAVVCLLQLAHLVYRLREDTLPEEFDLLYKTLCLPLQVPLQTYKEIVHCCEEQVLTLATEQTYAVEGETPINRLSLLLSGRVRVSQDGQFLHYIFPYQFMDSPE

[3] = target: the molecule itself; assay: FRET or BRET
[4] = target: the molecule itself; assay: SDS-PAGE and Western blot of oligomer bands that withstand SDS

B1: POPDC1 p.Q153X-VC155 (domain or fragment, human, UniProt Q8NE79 1-152, looked up)
chain: MNYTESSPLRESTAIGFTPELESIIPVPSNKTTCENWREIHHLVFHVANICFAVGLVIPTTLHLHMIFLRGMLTLGCTLYIVWATLYRCALDIMIWNSVFLGVNILHLSYLLYKKRPVKIEKELSGMYRRLFEPLRVPPDLFRRLTGQFCMI
B1 was tested, and the “BiFC signal relative to the wild-type pair” value [1] was 0.248.

B2: POPDC1-VC155 (natural protein, human, UniProt Q8NE79 1-360, looked up)
chain: MNYTESSPLRESTAIGFTPELESIIPVPSNKTTCENWREIHHLVFHVANICFAVGLVIPTTLHLHMIFLRGMLTLGCTLYIVWATLYRCALDIMIWNSVFLGVNILHLSYLLYKKRPVKIEKELSGMYRRLFEPLRVPPDLFRRLTGQFCMIQTLKKGQTYAAEDKTSVDDRLSILLKGKMKVSYRGHFLHNIYPCAFIDSPEFRSTQMHKGEKFQVTIIADDNCRFLCWSRERLTYFLESEPFLYEIFRYLIGKDITNKLYSLNDPTLNDKKAKKLEHQLSLCTQISMLEMRNSIASSSDSDDGLHQFLRGTSSMSSLHVSSPHQRASAKMKPIEEGAEDDDDVFEPASPNTLKVHQLP
B2 was tested, and the “BiFC signal relative to the wild-type pair” value [2] was 0.59.

B3: POPDC1 with C-terminal NanoLuc or HaloTag (NanoBRET constructs) (natural protein, human, UniProt Q8NE79 1-360, looked up)
chain: B2 chain
For B3, the “stoichiometry N” value [3] was 2.

B4: POPDC1-CFP (natural protein, human, UniProt Q8NE79 1-360, looked up)
chain: B2 chain
B4 was tested, and the “stoichiometry N” value [4] was 2.

B5: POPDC1 p.S201F-VC155 (natural protein, human, UniProt Q8NE79 1-360, looked up)
chain: B2 chain with S201F
B5 was tested, and the “BiFC signal relative to the wild-type pair” value [1] was 0.43.
